Results on one molecule are retold here after patent publication US20230139885A1 (FUNDACI INSTITUT DE RECERCA CONTRA LA LEUC MIA JOSEP …, published 2023).

The target of the test is T1, human CD22 on cells (human, UniProt P20273 20-847).
T1 construct: whole, on cells; also called CD22-transfected 300.19 cells; CD22+ Raji cells
T1 sequence (looked up): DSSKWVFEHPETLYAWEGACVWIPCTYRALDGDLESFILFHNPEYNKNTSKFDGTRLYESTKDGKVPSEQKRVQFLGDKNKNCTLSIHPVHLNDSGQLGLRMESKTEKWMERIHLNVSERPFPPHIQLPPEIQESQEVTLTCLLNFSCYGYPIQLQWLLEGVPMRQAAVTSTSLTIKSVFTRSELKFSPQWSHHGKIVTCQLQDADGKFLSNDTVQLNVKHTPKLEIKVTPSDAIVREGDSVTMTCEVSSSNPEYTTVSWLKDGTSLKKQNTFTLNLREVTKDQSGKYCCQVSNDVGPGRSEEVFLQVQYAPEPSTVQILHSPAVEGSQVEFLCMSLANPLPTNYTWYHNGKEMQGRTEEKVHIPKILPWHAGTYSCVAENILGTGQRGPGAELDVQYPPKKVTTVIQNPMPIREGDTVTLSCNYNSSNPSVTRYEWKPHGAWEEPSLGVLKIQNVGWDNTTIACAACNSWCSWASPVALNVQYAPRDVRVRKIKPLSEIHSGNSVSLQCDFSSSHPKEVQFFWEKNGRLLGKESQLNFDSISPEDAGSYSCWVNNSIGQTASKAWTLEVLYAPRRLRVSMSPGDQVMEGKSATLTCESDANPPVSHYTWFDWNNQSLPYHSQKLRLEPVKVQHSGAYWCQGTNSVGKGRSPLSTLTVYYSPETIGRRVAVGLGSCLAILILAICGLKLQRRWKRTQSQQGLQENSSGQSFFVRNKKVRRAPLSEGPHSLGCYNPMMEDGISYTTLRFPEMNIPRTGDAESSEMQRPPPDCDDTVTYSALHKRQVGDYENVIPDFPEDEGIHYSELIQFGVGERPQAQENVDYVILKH
The experiment in a line: flow cytometry of hybridoma supernatants on CD22-transfected 300.19 cells. The source says: MoAbs reactive with human CD22 were generated by fusion of NS-1 myeloma cells with splenocytes from a Balb/c mouse previously immunized three times with 30×10⁶ CD22-transfected 300.19 cells. Supernatants from hybridoma-containing wells were screened by flow cytometry for moAbs reactive with CD22-transfected 300.19 cells. Three reactive hybridomas were chosen for further characterization and were subcloned by limiting dilution (clones hCD22.7, hCD22.316 and hCD22.401). The three antibodies were of the IgG1K isotype, as determined using a mouse moAb isotyping kit (Boehringer Mannheim, Mannheim, Germany). Antibody specificity was further validated using a CD22-transfected COS cell line (pUNO1-hCD22; InvivoGen, Toulouse, France), the cell lines Raji, Daudi, […], U266 and Jurkat, and peripheral blood (PB) mononuclear cells (PBMCs). CD22 epitope binding to the hCD22.7 clone was determined by crossblocking with an antibody against the N-terminal domain of CD22 (S-HCL-1). The CD22-specific scFv derived from the hCD22.7 clone was obtained using the mouse IgG Library Primer Set (Progen, Heidelberg, Germany).

B1: anti-CD22 monoclonal antibody clone hCD22.7 (antibody, V domains shown)
VH: EVQLQESGPSLVKPSQTLSLTCSVTGDSITSGYWNWIRKFPGNKLEYMGYISYSGSTYYNPSLKSRISITRDTSKNQYYMQLKSVTTEDTATYYCARYPSPDAMNYWGQGTSVTVSS
VL: not shown
notes: also called hCD22.7 moAb; hCD22.7 clone
Consider B1, for which the binding result is listed as “binds”.
